Experimental data: the Human Domainome abundance scans (Beltran et al. 2025)
± gives the uncertainty stated by the source.

B1: Tyrosine-protein kinase BTK, residues 215 to 273; numbered along this chain, Q06187 (parent)
chain: ELKKVVALYDYMPMNANDLQLRKGDEYFILEESNLPWWRARDKNGQEGYIPSNYVTEAE

Variants of: B1
Test: abundance fitness (aPCA) (normalised: wild type 0, dead -1); higher = more abundant; growth selection in yeast, the domain comes from the species named
Settings: Homo sapiens

Going from R22V to I50N, the abundance fitness falls from 0.031 ± 0.033 to -0.92 ± 0.17.

Going from G24S to L19C, the abundance fitness falls from -0.226 ± 0.04 to -0.444 ± 0.058.

E1F and D18G are within error of each other in abundance fitness: -0.094 ± 0.2 for the first, -0.038 ± 0.037 for the second.

Q20H and E47V are within error of each other in abundance fitness: -0.075 ± 0.08 for the first, -0.05 ± 0.041 for the second.

Going from V55K to L8M, the abundance fitness rises from -0.833 ± 0.12 to -0.014 ± 0.049.

First: Q20F
Second: K43H
The abundance fitness of the first is lower: -0.2 ± 0.055 for the first, -0.026 ± 0.086 for the second.

Going from P51Q to G48M, the abundance fitness falls from -0.128 ± 0.055 to -0.946 ± 0.078.

Q20T and N17K are within error of each other in abundance fitness: -0.043 ± 0.05 for the first, -0.052 ± 0.058 for the second.

K3W and P51W are within error of each other in abundance fitness: -0.253 ± 0.05 for the first, -0.164 ± 0.045 for the second.

First: K4L
Second: G48Y
The abundance fitness of the first is higher: -0.089 ± 0.041 for the first, -0.968 ± 0.15 for the second.

Compared with E47N, D42M is lower in abundance fitness: -0.115 ± 0.067 for the first, -0.498 ± 0.055 for the second.

Compared with E47G, A7D is lower in abundance fitness: -0.451 ± 0.05 for the first, -0.909 ± 0.11 for the second.

First: A16Q
Second: A7Y
The abundance fitness of the first is higher: 0.016 ± 0.04 for the first, -1.06 ± 0.12 for the second.

Compared with N15P, G48S is lower in abundance fitness: -0.442 ± 0.044 for the first, -0.862 ± 0.057 for the second.

First: G48K
Second: V5K
The abundance fitness of the first is lower: -0.8 ± 0.069 for the first, -0.288 ± 0.056 for the second.

Going from Y11M to T56M, the abundance fitness rises from -0.099 ± 0.06 to 0.025 ± 0.058.

S52D and F28K are within error of each other in abundance fitness: -0.232 ± 0.063 for the first, -0.141 ± 0.06 for the second.

N53Q and E57G are within error of each other in abundance fitness: -0.041 ± 0.067 for the first, 0.01 ± 0.048 for the second.

I50F and K3Y are within error of each other in abundance fitness: -0.121 ± 0.082 for the first, -0.205 ± 0.058 for the second.

First: A16V
Second: I29F
The abundance fitness of the first is higher: -0.046 ± 0.03 for the first, -0.799 ± 0.11 for the second.

V6M and L35Q are within error of each other in abundance fitness: -0.1 ± 0.044 for the first, -0.012 ± 0.051 for the second.

First: V55T
Second: N15S
The abundance fitness of the first is lower: -0.12 ± 0.06 for the first, 0.059 ± 0.032 for the second.

E26L and Y9R are within error of each other in abundance fitness: -0.01 ± 0.036 for the first, 0.057 ± 0.031 for the second.

First: I50G
Second: E59G
The abundance fitness of the first is lower: -0.876 ± 0.07 for the first, 0.042 ± 0.056 for the second.

N34E and V6K are within error of each other in abundance fitness: 0.037 ± 0.043 for the first, -0.023 ± 0.04 for the second.

Compared with G45I, D10N is higher in abundance fitness: -0.809 ± 0.15 for the first, -0.102 ± 0.049 for the second.

First: G48E
Second: K3P
The abundance fitness of the first is lower: -0.895 ± 0.12 for the first, -0.234 ± 0.064 for the second.

First: V5S
Second: L8S
The abundance fitness of the first is lower: -0.404 ± 0.04 for the first, -0.107 ± 0.035 for the second.

Going from E1T to P51F, the abundance fitness rises from -0.288 ± 0.1 to -0.054 ± 0.077.

Compared with Y11S, N17Q is higher in abundance fitness: -0.161 ± 0.033 for the first, 0.033 ± 0.044 for the second.

Q20C and E57L are within error of each other in abundance fitness: -0.06 ± 0.059 for the first, -0.057 ± 0.037 for the second.

First: L19N
Second: E57A
The abundance fitness of the first is lower: -0.701 ± 0.1 for the first, -0.025 ± 0.042 for the second.

Y54F and E32N are within error of each other in abundance fitness: 0.101 ± 0.066 for the first, -0.055 ± 0.11 for the second.

Going from L30M to G45V, the abundance fitness falls from -0.087 ± 0.052 to -0.641 ± 0.046.

Y9M and M12T are within error of each other in abundance fitness: 0.053 ± 0.038 for the first, 0.016 ± 0.051 for the second.

K23R and Y54R are within error of each other in abundance fitness: -0.056 ± 0.03 for the first, -0.078 ± 0.033 for the second.

Compared with V5Y, M12C is higher in abundance fitness: -0.113 ± 0.054 for the first, 0.032 ± 0.052 for the second.

First: D25E
Second: N53W
The abundance fitness of the first is higher: 0.019 ± 0.043 for the first, -0.137 ± 0.054 for the second.

First: M14S
Second: D42E
The abundance fitness of the first is higher: -0.001 ± 0.031 for the first, -0.23 ± 0.044 for the second.

Compared with G24A, P36A is higher in abundance fitness: -0.252 ± 0.039 for the first, 0.012 ± 0.049 for the second.

Going from R39V to I50M, the abundance fitness falls from -0.065 ± 0.033 to -0.291 ± 0.054.

E26G and L30R are within error of each other in abundance fitness: -0.191 ± 0.042 for the first, -0.223 ± 0.031 for the second.

First: E47A
Second: Y11G
The abundance fitness of the first is higher: -0.086 ± 0.051 for the first, -0.709 ± 0.058 for the second.

L21V and T56W are within error of each other in abundance fitness: -0.079 ± 0.035 for the first, -0.044 ± 0.055 for the second.

L21M and S33T are within error of each other in abundance fitness: -0.079 ± 0.05 for the first, 0.005 ± 0.062 for the second.

Going from D25P to I50Y, the abundance fitness rises from -1.15 ± 0.15 to -0.757 ± 0.1.

Compared with E47I, P36S is higher in abundance fitness: -0.142 ± 0.072 for the first, -0.013 ± 0.038 for the second.

M14C and K43L are within error of each other in abundance fitness: -0.08 ± 0.059 for the first, -0.029 ± 0.045 for the second.

W37Y and E1W are within error of each other in abundance fitness: -0.018 ± 0.054 for the first, -0.088 ± 0.079 for the second.

Compared with Q20M, P51I is lower in abundance fitness: -0.073 ± 0.058 for the first, -0.581 ± 0.12 for the second.

Compared with R41P, M14G is higher in abundance fitness: -0.976 ± 0.12 for the first, 0.02 ± 0.035 for the second.

First: N15M
Second: G48V
The abundance fitness of the first is higher: -0.03 ± 0.037 for the first, -0.92 ± 0.063 for the second.

R41M and E57S are within error of each other in abundance fitness: -0.003 ± 0.058 for the first, -0.009 ± 0.035 for the second.

Going from M12R to T56I, the abundance fitness falls from -0.002 ± 0.029 to -0.184 ± 0.071.

E59M and E59I are within error of each other in abundance fitness: -0.138 ± 0.083 for the first, -0.014 ± 0.088 for the second.

First: N15R
Second: K23P
The abundance fitness of the first is higher: 0.026 ± 0.03 for the first, -0.371 ± 0.05 for the second.

E31M and L35M are within error of each other in abundance fitness: 0.026 ± 0.048 for the first, -0.028 ± 0.047 for the second.

First: K23W
Second: P51K
The abundance fitness of the first is lower: -0.372 ± 0.033 for the first, -0.106 ± 0.05 for the second.

Q20Y and S33A are within error of each other in abundance fitness: -0.037 ± 0.066 for the first, 0.026 ± 0.046 for the second.

Going from K4Q to W37T, the abundance fitness rises from -0.088 ± 0.059 to 0.036 ± 0.045.

G45L and E32A are within error of each other in abundance fitness: -0.08 ± 0.038 for the first, 0.016 ± 0.094 for the second.

E26Y and E31G are within error of each other in abundance fitness: -0.082 ± 0.058 for the first, -0.051 ± 0.036 for the second.

W38C and T56S are within error of each other in abundance fitness: -0.027 ± 0.048 for the first, -0.03 ± 0.04 for the second.

Compared with V55G, S33G is higher in abundance fitness: -0.827 ± 0.056 for the first, -0.019 ± 0.038 for the second.

N44V and M12N are within error of each other in abundance fitness: -0.054 ± 0.049 for the first, -0.007 ± 0.067 for the second.

Going from L21E to A7R, the abundance fitness falls from -0.793 ± 0.085 to -1.04 ± 0.056.

Compared with Y9P, S33W is higher in abundance fitness: -0.663 ± 0.054 for the first, -0.072 ± 0.044 for the second.

Compared with N15Y, N17W is higher in abundance fitness: -0.23 ± 0.062 for the first, -0.115 ± 0.034 for the second.

Compared with L21T, P36Q is higher in abundance fitness: -0.523 ± 0.049 for the first, 0.002 ± 0.054 for the second.

Going from N15T to N17E, the abundance fitness falls from 0.089 ± 0.042 to -0.024 ± 0.043.

E31N and Y49H are within error of each other in abundance fitness: -0.058 ± 0.058 for the first, -0.074 ± 0.074 for the second.

K43N and P51M are within error of each other in abundance fitness: -0.018 ± 0.085 for the first, -0.123 ± 0.055 for the second.

L2A and K43P are within error of each other in abundance fitness: -0.093 ± 0.07 for the first, -0.098 ± 0.061 for the second.

Going from D42Y to Q46V, the abundance fitness rises from -0.889 ± 0.092 to 0.044 ± 0.037.

R39Q and L2Y are within error of each other in abundance fitness: -0.031 ± 0.06 for the first, -0.036 ± 0.073 for the second.

First: R22F
Second: Y11D
The abundance fitness of the first is higher: -0.036 ± 0.062 for the first, -0.72 ± 0.14 for the second.

S52G and L30E are within error of each other in abundance fitness: -0.028 ± 0.036 for the first, -0.104 ± 0.055 for the second.

R39F and F28R are within error of each other in abundance fitness: -0.069 ± 0.057 for the first, -0.012 ± 0.047 for the second.

Going from R22G to K23Q, the abundance fitness rises from -0.257 ± 0.033 to -0.077 ± 0.046.

D25L and S33F are within error of each other in abundance fitness: -0.061 ± 0.036 for the first, -0.015 ± 0.052 for the second.

E26A and Q20V are within error of each other in abundance fitness: -0.075 ± 0.046 for the first, -0.082 ± 0.034 for the second.

R22A and F28D are within error of each other in abundance fitness: -0.032 ± 0.038 for the first, -0.018 ± 0.064 for the second.

E1D and R22T are within error of each other in abundance fitness: -0.103 ± 0.075 for the first, -0.037 ± 0.053 for the second.

L21C showed an abundance fitness of -0.349 ± 0.068.
